This note sets out measurements from patent US20060078537A1 (published 2006).

Experiment [1] deals with T1, human CCR5 (human, UniProt P51681 1-352).
T1 construct: whole, on cells; also called CCR5 receptor
The experiment is described as follows: told from CCR5 internalization on CD4+ and CD8+ T cells of human PBMC (FACS). As for the experimental part:
(§1) RM and MR induced internalization of CCR5 on T cells is shown in FIGS. 7A and 7B, respectively. Human PBMC were incubated for 30 min at 37° C. with various concentrations of RM (FIG. 7A), MR (FIG. 7B) and RANTES and stained on ice for 1 h with a combination of directly conjugated antibodies against CCR5, CD8 and CD4. Mean channel fluorescence (MCF) of CCR5 was quantified on CD4 and CD8 positive T cells by FACS-analysis. Relative surface expression of CCR5 was calculated as [MCF(exp.)-MCF(negative control)]/[(MCF(medium)-MCF(negative control).
as §1, with “Human” for “RM and MR induced internalization of CCR5 on T cells is shown in FIGS. 7A and 7B, respectively. Human”, “RANTES. Cells were then” for “RANTES and”, “CD4 (CCR5-PE, Pharmingen, CD8-Cychrome, Immunotech and CD4-APC, Immunotech). CD4+ and CD8+ T cells were identified by expression of CD4 and CD8 as well as by their light scatter properties.” for “CD4.”

Experiment [2] has as its target T2, CD4 on human T cells (human, UniProt P01730 26-458).
T2 construct: whole, on cells
Kind of experiment: FACS on PBMC, 1 h on ice, detected with anti-6xHis or anti-RANTES (VL-1) antibody. As for the experimental part:
(§2) PBMC were incubated for 1 h on ice with the constructs RM and MR in various concentrations. After washing with PBS, cell bound constructs were detected with an antibody against 6×His (Dianova) or an antibody against RANTES (VL-1) followed by incubation with PE-labelled rabbit-anti-mouse F(ab) fragments (Dako R439). Binding of RM and MR to CD4 on T cells was detected by FACS analysis (FIG. 6A).

The target of experiment [3] is T2, CD4 on human T cells. Kind of experiment: FACS on PBMC. As for the experimental part: as §2

T1 sequence (P51681 whole entry): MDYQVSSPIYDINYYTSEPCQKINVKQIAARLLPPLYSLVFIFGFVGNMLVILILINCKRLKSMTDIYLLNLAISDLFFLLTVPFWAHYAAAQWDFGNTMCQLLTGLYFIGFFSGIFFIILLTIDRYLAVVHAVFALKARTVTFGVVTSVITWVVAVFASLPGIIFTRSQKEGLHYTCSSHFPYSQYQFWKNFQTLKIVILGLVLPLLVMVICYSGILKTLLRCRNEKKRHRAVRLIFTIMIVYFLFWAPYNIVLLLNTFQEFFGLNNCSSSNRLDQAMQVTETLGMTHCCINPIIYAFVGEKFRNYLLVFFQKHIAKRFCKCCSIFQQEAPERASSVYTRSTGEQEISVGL

B1: MR construct ((VL) anti-CD4-linker-(VH) anti-CD4-linker-RANTES) (other)
chain: DYKDDDDKDIVLTQSPASLAVSLGQRATISCKASQSVDYDGDSYMNWYQQKSGQPPKLLIYAASNLESGIPARFSGSGSGTDFTLNIHPVEEEDAATYYCQQSIQDPCTFGGGTELEIKGGGGSGGGGSGGGGSQVQLQQSGPELVKPGASVKMSCKASGYTFTDYVINWVKQRTGQGLEWIGEIYPGSGSDYYNENLKDKATLTADKSSNTAYMQLSSLTSEDSAVYFCARKGENGNSLAFAYWGQGTLVTVSAGGGGSGGGGSSPYSSDTTPCCFAYIARPLPRAHIKEYFYTSGKCSNPAVVFVTRKNRQVCANPEKKWVREYINSLQMSHHHHHH
notes: Expressed in the periplasm of E. coli and also in CHO cells; also called antiCD4-RANTES
Regarding B1, the binding result in experiment [1] and in experiment [2] was “binds” in each case.

B2: RM construct (RANTES-linker-(VH) anti-CD4-linker-(VL) anti-CD4) (other)
chain: SPYSSDTTPCCFAYIARPLPRAHIKEYFYTSGKCSNPAVVFVTRKNRQVCANPEKKWVREYINSLQMSSGGGGSGGGGSDIQLQQSGPELVKPGASVKMSCKASGYTFTDYVINWVKQRTGQGLEWIGEIYPGSGSDYYNENLKDKATLTADKSSNTAYMQLSSLTSEDSAVYFCARKGENGNSLAFAYWGQGTLVTVSAGGGGSGGGGSGGGGDIVLTQSPASLAVSLGQRATISCKASQSVDYDGDSYMNWYQQKSGQPPKLLIYAASNLESGIPARFSGSGSGTDFTLNIHPVEEEDAATYYCQQSIQDPCTFGGGTELEIKHHHHHH
notes: also called RANTES-antiCD4; RANTES-anti-CD4
On to B2, for which the binding result in experiment [3] and in experiment [1] was “binds” throughout.
